According to IntAct's records for PubMed 16107882:

B1: Bud site selection protein 14 (Saccharomyces cerevisiae), P27637 (parent)
chain: MSNKEEHVDETSASGVKEVSSIAARHDNGYAPSLITSTSGMDSFQSHALLNDPTLIEDYSDIINNRPTSGSKLTLGNEDSESMGGSVVVTPTSNKSSPFNSKLNILSNAAEKGHDVLRNRDDDKELEEENVEKHMHSNSKRDQRHYKENSSELPDSYDYSDSEFEDNLERRLQEIETDSVDSADKDEVHFSVNNTMNPDVDDFSDGLKYAISEDEDEEENYSDDDDFDRKFQDSGFQGEKDDLEEENDDYQPLSPPRELDPDKLYALYAFNGHDSSHCQLGQDEPCILLNDQDAYWWLVKRITDGKIGFAPAEILETFPERLARLNCWKNENMSSQSVASSDSKDDSISSGNKNQSDAESIIPTPALNGYGKGNKSVSFNDVVGYADRFIDDAIEDTSLDSNDDGGEGNGQSYDDDVDNDKETKVTHRDEYTEAKLNFGKFQDDDTSDVVSDVSFSTSLNTPLNVKKVRRQDNKNESEPKTSSSKDREDDYNANRYVGQEKSEPVDSDYDTDLKKVFEAPRMPFANGMAKSDSQNSLSTIGEFSPSSSEWTNESPSTPIVEESSSIPSSRAIKDISQYIHAKSKIEETTNVENTEGQIQASLGSSGGMANQTDAEQPKEELEKHHSTPEEEKQSTLSLHSSSEEDFYMDEQRAVSSASINSSLSGSRALSNTNMSDPASKPNSLVQHLYAPVFDRMDVLMKQLDEIIRK

Variants of: B1
Conditions: with pp12_yeast GLC7, P32598
pp12_yeast GLC7, P32598, sequence (P32598 whole entry): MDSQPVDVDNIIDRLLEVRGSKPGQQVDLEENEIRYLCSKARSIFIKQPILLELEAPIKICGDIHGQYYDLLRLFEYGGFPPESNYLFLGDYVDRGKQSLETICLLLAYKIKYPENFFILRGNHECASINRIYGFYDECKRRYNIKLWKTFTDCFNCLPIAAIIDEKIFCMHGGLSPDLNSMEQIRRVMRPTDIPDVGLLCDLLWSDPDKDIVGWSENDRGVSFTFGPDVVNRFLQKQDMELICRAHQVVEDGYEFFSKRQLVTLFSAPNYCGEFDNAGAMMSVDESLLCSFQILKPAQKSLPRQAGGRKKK

Variant	effect of a mutation on the interaction
F379A	decreasing interaction
V377A	decreasing interaction

Variants of: B1
Conditions: with bem2_yeast BEM2, P39960
bem2_yeast BEM2, P39960, sequence (P39960 whole entry): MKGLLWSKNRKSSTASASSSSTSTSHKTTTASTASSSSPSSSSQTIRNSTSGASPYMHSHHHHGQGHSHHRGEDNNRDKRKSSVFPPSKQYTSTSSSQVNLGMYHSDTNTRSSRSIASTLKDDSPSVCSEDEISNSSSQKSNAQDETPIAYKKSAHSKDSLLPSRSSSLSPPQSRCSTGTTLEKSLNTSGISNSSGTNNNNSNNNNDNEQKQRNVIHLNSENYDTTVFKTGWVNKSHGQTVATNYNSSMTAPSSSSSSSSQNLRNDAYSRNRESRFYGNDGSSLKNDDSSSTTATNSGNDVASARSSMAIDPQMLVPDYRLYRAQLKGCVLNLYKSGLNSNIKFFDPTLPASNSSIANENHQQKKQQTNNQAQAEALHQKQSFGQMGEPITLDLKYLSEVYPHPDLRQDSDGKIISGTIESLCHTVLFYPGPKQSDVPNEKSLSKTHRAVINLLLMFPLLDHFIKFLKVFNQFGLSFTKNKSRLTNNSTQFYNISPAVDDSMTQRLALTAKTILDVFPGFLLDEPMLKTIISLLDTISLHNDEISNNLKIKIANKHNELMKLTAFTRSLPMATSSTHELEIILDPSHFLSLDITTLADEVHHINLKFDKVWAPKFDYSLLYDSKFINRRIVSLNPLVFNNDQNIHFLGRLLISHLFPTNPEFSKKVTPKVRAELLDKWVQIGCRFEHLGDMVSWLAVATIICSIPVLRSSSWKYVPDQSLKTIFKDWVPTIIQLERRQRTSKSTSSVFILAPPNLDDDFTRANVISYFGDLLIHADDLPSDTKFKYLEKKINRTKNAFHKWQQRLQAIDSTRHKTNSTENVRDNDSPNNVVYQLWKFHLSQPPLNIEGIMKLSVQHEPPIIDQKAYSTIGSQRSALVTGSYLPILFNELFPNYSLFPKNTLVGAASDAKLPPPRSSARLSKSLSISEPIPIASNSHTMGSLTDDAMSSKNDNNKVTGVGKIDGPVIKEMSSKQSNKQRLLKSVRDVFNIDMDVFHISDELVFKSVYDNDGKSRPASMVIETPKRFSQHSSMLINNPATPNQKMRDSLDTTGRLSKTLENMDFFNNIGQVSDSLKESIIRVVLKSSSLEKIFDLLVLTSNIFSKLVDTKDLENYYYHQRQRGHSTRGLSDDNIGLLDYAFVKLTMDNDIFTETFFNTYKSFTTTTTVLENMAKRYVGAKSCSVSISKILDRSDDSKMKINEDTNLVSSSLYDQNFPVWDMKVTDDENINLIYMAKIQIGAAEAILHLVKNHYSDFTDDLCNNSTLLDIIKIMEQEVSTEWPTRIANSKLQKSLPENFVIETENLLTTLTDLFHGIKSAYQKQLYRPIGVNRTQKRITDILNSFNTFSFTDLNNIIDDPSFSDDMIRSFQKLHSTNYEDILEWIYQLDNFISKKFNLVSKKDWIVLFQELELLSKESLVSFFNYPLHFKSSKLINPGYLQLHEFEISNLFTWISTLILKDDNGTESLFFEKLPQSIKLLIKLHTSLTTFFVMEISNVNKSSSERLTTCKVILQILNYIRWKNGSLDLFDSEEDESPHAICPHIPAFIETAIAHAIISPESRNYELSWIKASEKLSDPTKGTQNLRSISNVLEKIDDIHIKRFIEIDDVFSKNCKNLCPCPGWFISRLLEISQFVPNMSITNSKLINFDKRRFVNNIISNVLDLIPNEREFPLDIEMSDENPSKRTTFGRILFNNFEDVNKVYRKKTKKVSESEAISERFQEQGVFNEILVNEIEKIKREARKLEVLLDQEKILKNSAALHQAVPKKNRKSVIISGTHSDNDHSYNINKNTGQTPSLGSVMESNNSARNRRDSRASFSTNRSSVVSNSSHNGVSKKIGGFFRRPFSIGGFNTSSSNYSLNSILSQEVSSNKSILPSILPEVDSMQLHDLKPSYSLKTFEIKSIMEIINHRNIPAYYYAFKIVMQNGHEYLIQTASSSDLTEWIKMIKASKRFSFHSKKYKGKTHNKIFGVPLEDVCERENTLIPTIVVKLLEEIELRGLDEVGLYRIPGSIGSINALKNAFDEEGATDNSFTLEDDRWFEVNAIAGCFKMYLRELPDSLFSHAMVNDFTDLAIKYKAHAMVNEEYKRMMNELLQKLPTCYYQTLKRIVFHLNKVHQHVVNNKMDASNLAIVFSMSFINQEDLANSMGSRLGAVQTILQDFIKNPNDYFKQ

Variant	effect of a mutation on the interaction
F379A	decreasing interaction
